Positions count from the first letter of the chain named. Names and notes keep the numbering of the source.
B1: 9xHis-SUMO-NEMO(1–120)(des3C/C54), oxidised covalent dimer (domain or fragment, human, UniProt Q9Y6K9 1-120, looked up)
chain: MNRHLWKSQLAEMVQPSGGPAADQDVLGEESPLGKPAMLHLPSEQGAPETLQRCLEENQELRDAIRQSNQILRERAEELLHFQASQREEKEFLMAKFQEARKLVERLGLEKLDLKRQKEQ
modifications: interchain disulfide bond at Cys54
B2: 9xHis-SUMO-NEMO(1–120)(des4C/L107C), covalent dimer (domain or fragment, human, UniProt Q9Y6K9 1-120, looked up)
chain: B1 chain with C54A, L107C
modifications: interchain disulfide bond at Cys107
B3: 9xHis-SUMO-NEMO(1–120)(des3C/C54/L107C), covalent dimer (domain or fragment, human, UniProt Q9Y6K9 1-120, looked up)
chain: B1 chain with L107C
modifications: interchain disulfide bonds at Cys54 and Cys107
B4: 9xHis-SUMO-NEMO(44–111)(des3C/L107C), covalent dimer (domain or fragment, human, UniProt Q9Y6K9 44-111, looked up)
chain: {9xHis‑SUMO}-EQGAPETLQRALEENQELRDAIRQSNQILRERAEELLHFQASQREEKEFLMAKFQEARKLVERCGLEK
modifications: also: covalent dimer via interchain disulfide at Cys107
B5: 9xHis-SUMO-NEMO(44–111)(des2C/C54/L107C), covalent dimer (domain or fragment, human, UniProt Q9Y6K9 44-111, looked up)
chain: {9xHis‑SUMO}-EQGAPETLQRCLEENQELRDAIRQSNQILRERAEELLHFQASQREEKEFLMAKFQEARKLVERCGLEK
modifications: also: covalent dimer via interchain disulfides at Cys54 and Cys107
B6: 9xHis-SUMO-NEMO(44–111)(des2C/C54), covalent dimer (domain or fragment, human, UniProt Q9Y6K9 44-111, looked up)
chain: {9xHis‑SUMO}-EQGAPETLQRCLEENQELRDAIRQSNQILRERAEELLHFQASQREEKEFLMAKFQEARKLVERLGLEK
modifications: also: covalent dimer via interchain disulfide at Cys54
B7: FLAG-tagged 7xAla/L107C NEMO (natural protein, human, UniProt Q9Y6K9 1-419, looked up)
chain: MNRHLWKSQLAEMVQPSGGPAADQDVLGEESPLGKPAMLHLPSEQGAPETLQRALEENQELRDAIRQSNQILRERAEELLHFQASQREEKEFLMAKFQEARKLVERCGLEKLDLKRQKEQALREVEHLKRAQQQMAEDKASVKAQVTSLLGELQESQSRLEAATKEAQALEGRARAASEQARQLESEREALQQQHSVQVDQLRMQGQSVEAALRMERQAASEEKRKLAQLQVAYHQLFQEYDNHIKSSVVGSERKRGMQLEDLKQQLQQAEEALVAKQEVIDKLKEEAEQHKIVMETVPVLKAQADIYKADFQAERQAREKLAEKKELLQEQLEQLQREYSKLKASAQESARIEDMRKRHVEVSQAPLPPAPAYLSSPLALPSQRRSPPEEPPDFCCPKCQYQAPDMDTLQIHVMECIE

Biological target: the molecule itself
Assay: cross-linking

Stoichiometry N, 2:
B1
B2
B3
B4
B5
B6

Biological target: the molecule itself
Assay: cross-linking
Remark: another data set of the same source

Stoichiometry N, 2:
B7
